In patent US12312641B2, “Sensitivity marker for antibody-drug conjugate” (priority 2018, dated 2025):

Tested on: patient-derived xenograft (PDX) model
Assay: Anti-tumor effect (TGI) in patient-derived xenograft models, 10 to 15 days after administration
Format: in vivo, nu/nu mice
Details: for TGI (%): 10 mg/kg tail vein; for Proportion of PDX models showing TGI of 75% or more: TGI at 10 to 15 days
Description: Mice: Female nu/nu mice (Envigo) aged 5-8 weeks were acclimatized under SPF conditions for 3 days or more prior to experimental use. Mice were fed with sterile solid feed (Teklad2919, Envigo) and given reverse osmosis membrane-treated water (containing 2 ppm chlorine).
Measurements and Calculation formula: long and short diameters of tumors were measured twice a week with an electronic digital caliper (CD-6PMX, Mitutoyo Corp.) and tumor volume (mm^3) was calculated using the following calculation formula: Tumor volume (mm^3)=0.52×Long diameter (mm)×[Short diameter (mm)]^2
Tumor fragments from each cancer patient were subcutaneously implanted into mice and passaged. The obtained tumors were used to subcutaneously implant tumor fragments, which were cut to approximately 5×5×5 mm^3, into the left abdomen of female nu/nu mice, thereby each patient-derived xenograft (PDX) model was created. Mice were randomly grouped when the mean transplanted tumor volume reached 150 to 300 mm^3 (Day 0). On the same day as grouping, the antibody-drug conjugate (1) was administered into the tail vein at a dose of 10 mg/kg. A formulation buffer was similarly administered at a volume of 10 mL/kg as a negative control.
Data on the amount of gene expression in each PDX model used in Example 4 were obtained by the next-generation RNA sequencing method using RNA extracted from formalin-fixed paraffin-embedded specimens of each tumor. After the obtained data were normalized to a FPKM value, 1 was added to FPKM, and the sum was transformed to a logarithmic (log2) to obtain a log2[FPKM+1] value (Table 6). The log2[FPKM+1] value was used to analyze the relationship between the anti-tumor activity of antibody-drug conjugate (1) in each PDX model (Table 5) and the amount of expression of the hTROP2 gene and the SLFN11 gene.

B1: antibody-drug conjugate (1): humanized anti-hTROP2 antibody (SEQ ID NO: 1 residues 20-470, SEQ ID NO: 2 residues 21-234) conjugated to the exatecan-derivative drug-linker via a thioether bond (conjugate, chains of the INN, looked up)
VH: QVQLVQSGAEVKKPGASVKVSCKASGYTFTTAGMQWVRQAPGQGLEWMGWINTHSGVPKYAEDFKGRVTISADTSTSTAYLQLSSLKSEDTAVYYCARSGFGSSYWYFDVWGQGTLVTVSS
VL: DIQMTQSPSSLSASVGDRVTITCKASQDVSTAVAWYQQKPGKAPKLLIYSASYRYTGVPSRFSGSGSGTDFTLTISSLQPEDFAVYYCQQHYITPLTFGQGTKLEIK
modifications: exatecan-derivative drug-linker
PDX model #1, Breast, Day 14
  TGI (%): 95.2%
PDX model #2, Lung, Day 14
  TGI (%): 68.3%
PDX model #3, Cholangiocarcinoma, Day 14
  TGI (%): 22.2%
PDX model #4, Pancreatic, Day 14
  TGI (%): 21.8%
PDX model #5, Colorectal, Day 14
  TGI (%): 41.7%
PDX model #6, Breast, Day 14
  TGI (%): 92.4%
PDX model #7, Breast, Day 15
  TGI (%): 87.6%
PDX model #8, Head & neck, Day 14
  TGI (%): 57.9%
PDX model #9, Head & neck, Day 14
  TGI (%): 94.0%
PDX model #10, Lung, Day 14
  TGI (%): 97.3%
PDX model #11, Lung, Day 14
  TGI (%): 87.4%
PDX model #12, Breast, Day 15
  TGI (%): 90.0%
PDX model #13, Lung, Day 14
  TGI (%): 62.3%
PDX model #14, Breast, Day 14
  TGI (%): 82.7%
PDX model #15, Cholangiocarcinoma, Day 14
  TGI (%): 46.4%
PDX model #16, Colorectal, Day 14
  TGI (%): 26.0%
PDX model #17, Breast, Day 14
  TGI (%): 56.5%
PDX model #18, Lung, Day 14
  TGI (%): 14.6%
PDX model #19, Lung, Day 14
  TGI (%): 28.1%
PDX model #20, Lung, Day 14
  TGI (%): 82.0%
PDX model #21, Lung, Day 14
  TGI (%): 76.6%
PDX model #22, Lung, Day 14
  TGI (%): 87.9%
PDX model #23, Lung, Day 14
  TGI (%): 4.7%
PDX model #24, Lung, Day 14
  TGI (%): 19.1%
PDX model #25, Pancreatic, Day 14
  TGI (%): 37.9%
PDX model #26, Pancreatic, Day 13
  TGI (%): 62.3%
PDX model #27, Lung, Day 13
  TGI (%): 48.5%
PDX model #28, Breast, Day 14
  TGI (%): 92.6%
PDX model #29, Breast, Day 14
  TGI (%): 97.4%
PDX model #30, Lung, Day 10
  TGI (%): 84.7%
PDX model #31, Colorectal, Day 14
  TGI (%): 58.4%
PDX model #32, Lung, Day 13
  TGI (%): 64.9%
PDX model #33, Lung, Day 14
  TGI (%): 25.0%
PDX model #34, Lung, Day 13
  TGI (%): 89.7%
PDX model #35, Lung, Day 14
  TGI (%): −0.4%
log2[FPKM+1]: hTROP2 >4.0, SLFN11 >1, 21 models
  Proportion of PDX models showing TGI of 75% or more: 57%
log2[FPKM+1]: hTROP2 >4.0, SLFN11 >2, 15 models
  Proportion of PDX models showing TGI of 75% or more: 60%
log2[FPKM+1]: hTROP2 >4.0, SLFN11 >3, 9 models
  Proportion of PDX models showing TGI of 75% or more: 67%
log2[FPKM+1]: hTROP2 >4.0, SLFN11 All models, 32 models
  Proportion of PDX models showing TGI of 75% or more: 44%
log2[FPKM+1]: hTROP2 >5.0, SLFN11 >1, 18 models
  Proportion of PDX models showing TGI of 75% or more: 56%
log2[FPKM+1]: hTROP2 >5.0, SLFN11 >2, 13 models
  Proportion of PDX models showing TGI of 75% or more: 62%
log2[FPKM+1]: hTROP2 >5.0, SLFN11 >3, 7 models
  Proportion of PDX models showing TGI of 75% or more: 71%
log2[FPKM+1]: hTROP2 >5.0, SLFN11 All models, 29 models
  Proportion of PDX models showing TGI of 75% or more: 41%
log2[FPKM+1]: hTROP2 >6.0, SLFN11 >1, 17 models
  Proportion of PDX models showing TGI of 75% or more: 59%
log2[FPKM+1]: hTROP2 >6.0, SLFN11 >2, 12 models
  Proportion of PDX models showing TGI of 75% or more: 67%
log2[FPKM+1]: hTROP2 >6.0, SLFN11 >3, 6 models
  Proportion of PDX models showing TGI of 75% or more: 83%
log2[FPKM+1]: hTROP2 >6.0, SLFN11 All models, 25 models
  Proportion of PDX models showing TGI of 75% or more: 48%
log2[FPKM+1]: hTROP2 >7.0, SLFN11 >1, 11 models
  Proportion of PDX models showing TGI of 75% or more: 64%
log2[FPKM+1]: hTROP2 >7.0, SLFN11 >2, 7 models
  Proportion of PDX models showing TGI of 75% or more: 86%
log2[FPKM+1]: hTROP2 >7.0, SLFN11 >3, 4 models
  Proportion of PDX models showing TGI of 75% or more: 100%
log2[FPKM+1]: hTROP2 >7.0, SLFN11 All models, 16 models
  Proportion of PDX models showing TGI of 75% or more: 50%
log2[FPKM+1]: hTROP2 All models, SLFN11 >1, 24 models
  Proportion of PDX models showing TGI of 75% or more: 54%
log2[FPKM+1]: hTROP2 All models, SLFN11 >2, 18 models
  Proportion of PDX models showing TGI of 75% or more: 56%
log2[FPKM+1]: hTROP2 All models, SLFN11 >3, 12 models
  Proportion of PDX models showing TGI of 75% or more: 58%
log2[FPKM+1]: hTROP2 All models, SLFN11 All models, 35 models
  Proportion of PDX models showing TGI of 75% or more: 43%
log2[FPKM+1]: hTROP2 exceeds 7.0 and SLFN11 exceeds 3.0
  Proportion of animal models showing TGI of 75% or more: 100%
